Here are results for seven molecules from patent US20250304670A1 (AstraZeneca / MedImmune, published 2025).

B3: Abet0007 IgG2 (antibody, V domains shown)
VH: EVQLLESGGGLVQPGGSLRLSCAASGFTFSVYTMWWVRQAPGKGLEWVSVIGSSGGTTVYADSVKGRFTISRDNSKNTLYLQMNSLRAEDTAVYYCAREGQQLVRPYYYYGMDVWGQGTLVTVSS
VL: QSVLTQPPSVSVSPGQTASITCSGHNLEDKFASWYQQKSGQSPVLVIYRDDKRPSGIPERFSASNSGHTATLTISGTQATDEADYYCQAQDSTTRVFGGGTKLTVL
notes: whole human IgG2 with human lambda light chain
B6: Abet0380-GL IgG1-TM (antibody, V domains shown)
VH: EVQLLESGGGLVQPGGSLRLSCAASMGNFNYQTMWWVRQAPGKGLEWVSVIGKTNENIAYADSVKGRFTISRDNSKNTLYLQMNSLRAEDTAVYYCAREWMDHSRPYYYYGMDVWGQGTLVTVSS
VL: SYELTQPPSVSVSPGQTASITCSGHNLEDKFASWYQQKPGQSPVLVIYRDDKRPSGIPERFSASNSGHTATLTISGTQAMDEADYYCSSQDTVTRVFGGGTKLTVL
notes: human IgG1 with the triple mutation L234F/L235E/P331S (TM), human lambda light chain; also called Abet0380-GL (germlined) IgG1-TM
B7: Human Amyloid Beta 17-42 truncated peptide (peptide)
peptide: LVFFAEDVGSNKGAIIGLMVGGVVIA
notes: synthetic, unlabelled; also called Abeta 17-42

In the assay “Abet0380-GL IgG1-TM” the target is B6. Kind of assay: HTRF (TR-FRET) peptide competition: dilution series of peptide (10 uM to 0.17 nM) against 1.5 nM N-terminal biotin Abeta 1-42 for 0.5 nM Abet0380-GL IgG1-TM (Example 6). Here is the method: The assay was then incubated for a further 2 hrs at room temperature before reading on an Envision plate reader (PerkinElmer) using a standard homogeneous time resolved fluorescence (HTRF) read protocol.
The final assay volume was 20 ul and all reagents were prepared in an assay buffer comprising MOPS pH7.4 (50 mM), potassium fluoride (0.4M), tween 20 (0.1%) & fatty acid free BSA (0.1%). The assay was performed in low volume 384 well black assay plates (Costar 3676).

Another assay has as its target T1, Abet0144-GL IgG1-TM.
T1 construct: human IgG1 with the triple mutation L234F/L235E/P331S (TM), human lambda light chain; also called Abet0144-GL (germlined) IgG1-TM
The assay can be described thus: TR-FRET peptide competition: dilution series of unlabelled peptide against 1.5 nM biotinylated human Amyloid beta 1-42 peptide for 0.28 nM Abet0144-GL IgG1-TM (section 2.10). Here is the method: This involved the use of Europium cryptate labelled anti-human Fc IgG (CisBio International, France; cat: 61 HFCKLB) and XL665 labelled streptavidin (CisBio International, France; cat: 611SAXLB) TR-FRET detection reagents.
Experiments were set up in Costar 384 well shallow bottom microtitre plates. […] 5 μl of assay buffer only was added to the negative binding assay control wells. […] 5 μl per well of each test peptide serial dilution was then transferred onto the 384 well assay plate. 5 μl of assay buffer only was added to the total and negative binding assay control wells. […] Finally, a combined solution was prepared containing Europium cryptate labelled anti-human Fc (2.4 nM) and XL665 labelled streptavidin (60 nM). 5 μl per well of this solution was added to all wells of the 384 well assay plate such that the final concentrations of Europium cryptate labelled anti-human Fc and XL665 labelled streptavidin were 0.6 nM and 15 nM, respectively.
For orientation: Time-resolved FRET reads energy transfer from a long-lived donor to a nearby acceptor.

The target in assay [1] is T2, Biotinylated Human Amyloid Beta 1-42 peptide (human, N-terminal biotin).
T2 construct: synthetic (rPeptide A1117 or Bachem H-5642); also called N-terminal biotin Abeta 1-42; synthetic biotinylated human Amyloid beta 1-42 peptide
Kind of assay: SPR (BIAcore T-100), scFv over biotinylated peptide on SA chip, 1:1 Langmuir fit. Here is the method: The chip surface was regenerated between cycles by a single 20 second injection of 10 mM Glycine pH 2.0 to remove scFv bound to the peptide.
A series of dilutions of each purified scFv (12.5-400 nM) were sequentially passed over the peptide surface for a sufficient amount of time to observe sensorgrams that could be fitted to an appropriate binding model with confidence. A zero-concentration buffer blank was subtracted from the main dataset to reduce the impact of any buffer artefacts or non-specific binding effects. An appropriate binding model was then fitted simultaneously to the data from each analyte titration using the BIAevaluation software.
A general note: SPR reads the build-up and loss of mass on a sensor chip optically.

Assay [2] concerns the target T2, Biotinylated Human Amyloid Beta 1-42 …. The assay can be described thus: HTRF epitope competition, purified scFv; competitor Abet0042 IgG. Here is the method: The scFv with unique protein sequences were expressed in E. coli and purified by affinity chromatography followed by buffer exchange. […] The time resolved fluorescence was read after two hours incubation at room temperature.
Purified scFv were serially diluted in assay buffer containing 50 mM MOPS buffer pH 7.4 (Sigma, UK; cat: M9381), 0.4 M potassium fluoride (BDH Chemicals, USA; cat: 103444T), 0.1% fatty acid free bovine serum albumin (Sigma, UK; cat: A6003) and 0.1% Tween 20 (Sigma, UK; cat: P2287) using a Greiner 96 well U bottom plate (Greiner BioOne, Germany; cat: 650201). 5 μl of each dilution of scFv was transferred in duplicate to the assay plate (Costar® 384 well black shallow well, Corning Life Sciences; cat: 3676) using a MiniTrak™ (PerkinElmer, USA) liquid handling robot. […] The assay plates were sealed and incubated at room temperature for 1 hour. Streptavidin cryptate and anti-human Fc IgG XL665 were combined at 7 nM and 20 nM respectively in assay buffer and 5 μl of this solution were added to the assay plate.

In assay [3] the target is T3, Human Amyloid Beta 1-43 peptide (human).
T3 construct: synthetic, unlabelled; also called Abeta 1-43
T3 sequence (peptide, as listed by the source): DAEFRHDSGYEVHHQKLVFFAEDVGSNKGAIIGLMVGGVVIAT
The assay can be described thus: HTRF peptide competition against biotinylated human Amyloid beta 1-42. Here is the method:
(§1) As described above, the purified sFab fragments that bound specifically to the Amyloid beta 1-42 peptide were converted to recombinant IgG. To test the specificity of these IgGs for binding to other human Amyloid beta peptides, a competition assay was developed. […] The competition of each peptide was assessed by detecting the loss of binding of the lead IgG to the biotinylated 1-42 peptide by measuring the fluorescence resonance energy transfer (FRET) between the IgG and biotinylated 1-42 Amyloid beta using streptavidin cryptate (CisBio International, France; cat: 610SAKLB) and anti-human Fc IgG XL665 (CisBio International, France; cat: 61HFCXLB) detection reagents.
(§2) Streptavidin cryptate and anti-human Fc IgG XL665 were combined at 7 nM and 5 nM respectively in assay buffer containing 50 mM MOPS pH 7.4 (Sigma, UK; cat: M9381), 0.4 M KF (BDH Chemicals, USA; cat: 103444T), 0.1% fatty acid free bovine serum albumin (Sigma, UK; cat: A6003) and 0.1% Tween 20 (v/v) (Sigma, UK; cat: P2287). 5 μl of this solution were added to the assay plate (Costar® 384 well black shallow well, Corning Life Sciences; cat: 3676). Amyloid beta peptides were serially diluted in assay buffer using a Greiner 96 well U bottom plate (Greiner BioOne, Germany; cat: 650201). 5 μl of each peptide dilution were transferred in duplicate to the assay plate using a MiniTrak™ (PerkinElmer, USA) liquid handling robot. […]

The target of assay [4] is B7. Described as above. Here is the method: as §1, §2
The target in assay [5] is T4, Human Amyloid Beta 1-42 peptide (human).
T4 construct: synthetic, unlabelled; also used here for the endogenous peptide of human plasma in the depletion assay; also called unlabelled human Amyloid beta 1-42; synthetic human Amyloid beta 1-42 peptide
Kind of assay: SPR (BIAcore T-100), peptide over amine-coupled IgG, 1:1 Langmuir fit, mean. Here is the method: The chip surface was regenerated between cycles by a single 40 second injection of 10 mM Glycine pH 2.0 to remove ligand bound to the antibody.
Blank reference flow-cell data were subtracted from each IgG dataset and a zero-concentration buffer blank was double-reference subtracted from the main data set to reduce the impact of any buffer artefacts or non-specific binding effects. An appropriate binding model was then fitted simultaneously to the data from each analyte titration using the BIAevaluation software.
These parameters were derived from a 1:1 Langmuir fit to the data.

Assay [6] addresses T5, Human Amyloid Beta 1-40 peptide (human).
T5 construct: synthetic, unlabelled; also called unlabelled human Amyloid beta 1-40
Kind of assay: HTRF peptide competition: dilution series of unlabelled peptide against 5 nM biotinylated human Amyloid beta 1-42 peptide for 0.3 nM Abet0007 IgG2 (section 1.6). Here is the method: as §1, §2

In assay [7] the target is T2, Biotinylated Human Amyloid Beta 1-42 …. The assay can be described thus: SPR (ProteOn), scFv over immobilised biotinylated peptide. Here is the method:
These experiments were performed essentially as described by Karlsson et al. (Karlsson et al., 1991). For further details see section 1.7.
The chip surface was regenerated between cycles by a single 60 second injection of 10 mM Glycine pH 2.0 to remove scFv bound to the peptide.
Each scFv at 100-200 nM was sequentially passed over the peptide surface for a sufficient amount of time to observe sensorgrams that could be fitted to an appropriate binding model with confidence. An irrelevant scFv blank was subtracted from the main dataset to reduce the impact of any buffer artefacts or non-specific binding effects. An appropriate binding model was then fitted to the data.

Assay [8] shares this target. Kind of assay: HTRF epitope competition; competitor Abet0144-GL IgG1-TM.
Assay [9] concerns the target T6, Amyloid beta plaques on human Alzheimer's Disease brain sections (human, UniProt P05067 672-713).
T6 construct: mixture of Amyloid beta species in tissue; also called native Amyloid beta; human AD brain sections
The assay can be described thus: in vitro immunohistochemistry, core plaques.

In the assay “Abet0007 IgG2” the target is B3. The assay can be described thus: HTRF peptide competition: dilution series of unlabelled peptide against 5 nM biotinylated human Amyloid beta 1-42 peptide for 0.3 nM Abet0007 IgG2 (section 1.6). Here is the method:
as §1, §2

T5 sequence (peptide, as listed by the source): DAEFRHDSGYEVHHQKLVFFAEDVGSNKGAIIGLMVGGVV

B1: Human Amyloid Beta 1-16 truncated peptide (peptide)
peptide: DAEFRHDSGYEVHHQK
notes: synthetic, unlabelled; also called Abeta 1-16
As for B1, the results for the binding result with Abet0380-GL IgG1-TM and with Abet0144-GL IgG1-TM were “no binding (tested: 1e-5 M (log M -5))” and “no binding (tested: 1e-5 M (logM -5))”, respectively.

B2: Abet0144 scFv (scFv, V domains shown, not shown: small tags and cut ends)
VH: EVQLLESGGGLVQPGGSLRLSCAASGFTFSVYTMWWVRQAPGKGLEWVSVIGSSGGTTVYADSVKGRFTISRDNSKNTLYLQMNSLRAEDTAVYYCAREWMDHSRPYYYYGMDVWGQGTLVTVSS
VL: QSVLTQPPSVSVSPGQTASITCSGHNLEDKFASWYQQKSGQSPVLVIYRDDKRPSGIPERFSASNSGHTATLTISGTQATDEADYYCQAQDSTTRVFGGGTKLTVL
notes: non-germlined clone; VH is that of Abet0144-GL (no residues changed on germlining); also called most improved clone
Take B2: in [1], the Kd (usually the equilibrium constant for the complex coming apart) came to 33.2 nM; the koff (as a rule, a measure of how fast the partners let go of each other) was found to be 0.00666 s⁻¹; the on-rate constant (kon) (commonly the rate constant with which the complex forms) stood at 201000 M⁻¹ s⁻¹. Besides, the IC50 (usually the concentration needed to halve the response being measured) in assay [2] is 5.5 nM.

For B3, the values for the binding result in [3], in assay [4] and in assay [6] were “binds”, “binds” and “no binding (tested: about 2.5e-6 M (Log M about -5.6))”, respectively. The molecule further displayed a dissociation constant Kd in [5] of 473 nM. Also, the off-rate constant (koff) in assay [5] came out at 0.074 s⁻¹. Moreover, the kon in assay [5] amounted to 160000 M⁻¹ s⁻¹.

B4: Abet0382 scFv (scFv, V domains shown, not shown: small tags and cut ends)
VH: EVQLLESGGGLVQPGGSLRLSCAASGFHFTNSIMWWVRQAPGKGLEWVSVIGSEAHRVTYADSVKGRFTISRDNSKNTLYLQMNSLRAEDTAVYYCAREWMDHSRPYYYYGMDVWGQGTLVTVSS
VL: SYELIQPPSVSVSPGQTASITCSGHNLEDKFASWYQQKPGQSPVLVIYRDDKRPSGIPERFSATNSGHTATLTISGTQATDEADYYCSSQDSVTRVFGGGTKLTVL
notes: purified scFv from E. coli
With B4, in assay [7], the dissociation constant (Kd) worked out at 0.354 nM, the off-rate constant (koff) was determined as 7.97e-05 s⁻¹ and the kon worked out at 225000 M⁻¹ s⁻¹. Further, the IC50 in [8] came out at 0.66 nM.

B5: Abet0007 scFv (scFv, V domains shown, not shown: small tags and cut ends)
VH: EVQLLESGGGLVQPGGSLRLSCAASGFTFSVYTMWWVRQAPGKGLEWVSVIGSSGGTTVYADSVKGRFTISRDNSKNTLYLQMNSLRAEDTAVYYCAREGQQLVRPYYYYGMDVWGQGTLVTVSS
VL: QSVLTQPPSVSVSPGQTASITCSGHNLEDKFASWYQQKSGQSPVLVIYRDDKRPSGIPERFSASNSGHTATLTISGTQATDEADYYCQAQDSTTRVFGGGTKLTVL
notes: purified scFv from E. coli (pCantab10.5); also called original lead; parent clone
With B5, the half-maximal inhibitory concentration (IC50) in assay [2] came out at 159 nM. That is a sub-micromolar value.

Take B6: the “plaque staining score (0-4)” value in [9] was determined as 3.

For B7, in the assay with Abet0007 IgG2, the binding result is on record as “binds”.
